Data: the supplement of paper PMC10567573

B1: EHMT1 (parent)
chain: EEINKNISDFGRQQLLPPFPSLHQ
B2: TTC32 (parent)
chain: YSAYIRRCACAASSDESPGSKCSP

Variants of: B1
Assay: protein stability index of a GFP-peptide fusion (GPS, HEK-293T) (PSI 1-6); higher = more stable
Conditions: c terminus: a fixed tail appended
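Note: lentivirally expressed fusions sorted by FACS into six bins by GFP to DsRed ratio, PSI derived from sequencing read proportions per bin multiplied by bin number.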

Protein stability index: each site, then its substitutions
E1: D 2.58; G 2.7; F 2.3; A 2.47; C 2.44

Variants of: B2
Assay: as above
Conditions: c terminus: a fixed tail appended

Protein stability index: each site, then its substitutions
S17: Q 1.96; N 2.22; T 2.37; H 1.85; M 2.2; W 1.78; A 2.17; I 2.66; C 2.29; Y 1.68; R 2.28; L 1.78; D 2.05; P 2.44; V 2.02; F 1.85; E 2.38; G 2.08; K 1.94
A12: G 2.46; C 1.94; F 2.15; V 2.16; D 2.49; M 1.82; Q 2.12; K 1.81; I 1.78; E 2.55; W 2.08; Y 1.75; H 2.16; R 1.93; S 2.48; N 2.33; T 1.94; P 2.26; L 1.87
C22: E 2.96; V 2.1; Y 1.65; L 1.78; A 2.72; S 2.28; T 2.57; D 2.22; K 2.35; N 2.28; G 2.35; Q 2.02; R 2.14; F 1.69; I 1.85; P 2.02; H 2.14; M 1.71; W 2.41
E16: M 2.42; V 1.81; W 3.48; D 2.06; T 2.22; A 1.44; Q 2.18; S 1.94; G 1.8; H 2.36; P 2.01; L 1.58; R 1.62; N 1.92; Y 2.36; K 1.53; I 1.82; F 2.68; C 1.83
P18: W 2.63; H 2.21; K 2.82; I 1.95; S 2.37; N 2.33; T 2.42; Y 1.6; V 2.07; Q 1.96; R 2.06; G 2.43; M 1.68; E 2.36; C 2.28; D 2.45; A 1.83; F 2.68; L 2.22
R7: T 2.08; W 2.53; Q 2.48; S 2.42; Y 2.06; V 1.64
S20: F 1.93; H 2.8; Q 2.21; K 2.23; D 2.7; G 1.97; V 1.79; I 1.85; N 2.11; A 2.13; P 1.68; R 1.65; C 3.96; E 2.15; L 2.15; T 2.14; M 2.12; Y 1.61; W 1.85
A9: T 2.14; W 1.45; C 1.59; D 2.58; Y 1.55; G 1.82; R 2.66; E 3.19; F 1.76; P 2.16; Q 2.25; N 2.37; H 1.92; I 2.38; V 2.17; L 2.26; M 1.96; S 1.98; K 2.38
C10: G 3.46; D 3.2; Y 2.17; S 2.92; V 2.07; I 2.38; F 2.14; A 3.13; T 2.73; P 2.88; E 3.78; H 2.92; M 1.97; K 3.42; R 2.78; N 2.73; Q 2.69; L 2.28; W 1.44
A11: L 1.74; S 1.95; V 2.61; D 1.98; K 2.36; E 1.87; P 2.29; G 2.08; T 1.94; I 1.94; H 2.33; F 2.11; N 2.35; W 2.04; R 1.74; M 1.83; C 2.06; Q 2.03; Y 2.36
C8: A 3.5; Q 3.23; W 2.48; I 2.21; T 3.06; P 3.49; D 3.89; G 2.87; H 2.91; N 3.41; E 3.93; K 3.48; F 2; M 2.05; L 2.38; Y 2.07; R 2.99; S 3.03; V 2.67
D15: F 2.34; S 2.41; N 1.65; Q 2.02; M 2.28; Y 2.38; W 1.6; I 2.06; C 2.03; T 2.76; G 1.72; H 2.37; V 1.51; A 3.53; K 1.81; P 1.99; L 1.61; R 1.85; E 2.35
S13: W 1.98; V 1.49; M 1.55; E 2.03; Y 2.13; N 1.87; Q 1.96; F 2.08; I 2; G 2.57; A 2.07; R 2.21; D 2.62; H 2.1; L 1.69; T 2.1; C 2.96; P 1.89; K 2.28
S23: P 2.02; R 2.44; C 2.26; V 2.52; G 2.08; N 2.17; W 2.53; Q 2.05; T 2.09; H 1.6; D 2.46; M 1.61; I 1.4; E 2.14; L 2.08; F 1.9; A 1.87; K 2.06; Y 1.5
P24: Y 1.54; N 2.31; S 1.95; M 2.24; I 2.25; A 2.03; F 1.35; H 2.54; R 2.2; C 4.33; E 2.34; T 2.03; L 2.1; V 2.93; D 2; W 1.91; G 2.23; K 2.03; Q 2.04
K21: E 2.3; V 1.62; N 2.11; P 2.93; C 2.37; T 1.69; H 1.97; S 1.86; I 1.86; G 2.02; A 2.23; M 3.54; D 1.92; R 1.56; L 1.95; Y 2.8; W 2.23; Q 1.98; F 2.22
G19: F 2.32; L 1.31; H 2.24; K 2.29; S 1.51; R 2.04; E 2.31; N 2.24; D 2.83; M 1.74; Y 2.35; W 4.05; I 1.89; A 2.02; T 1.91; P 2.31; V 1.03; C 4.24; Q 2
S14: L 2; M 1.4; N 2.65; V 1.53; I 1.96; K 2.29; W 1.92; A 2.16; E 2.65; Y 1.88; P 2.29; H 2.74; D 2.38; G 2.33; T 1.93; Q 2.19; C 2.18; R 2.03; F 1.45
